From PMC7935953, “Insights on autophagosome–lysosome tethering from structural and biochemical characterization of human autophagy factor EPG5” (Communications Biology, 2021)
Where no end group is shown, it is not given here.

How the values were obtained:
[1] = biological target: T1, LC3B (Homo sapiens, UniProt Q9GZQ8); test: ITC of hEPG5 LIR peptides titrated into His-LC3B; type: binding; conditions: 0.6 mM peptide into 0.06 mM His-LC3B, 20 steps, 25 °C, 50 mM Tris pH 7.0, 25 mM NaCl, one-site model, mean of triplicates
T1 construct: made in house; host or cells: E. coli (T7 Express)
Experimental: (§1) For ITC studies, N-terminally His-tagged LC3 and GABARAP proteins were expressed in E. coli (T7 Express) cells. The cells were induced with 1 mM IPTG for 4 h at 25 °C. The cell pellets were resuspended, sonicated, and centrifuged, as described above with buffer G (50 mM Tris pH 7.0, 150 mM NaCl, and 2 mM PMSF). The supernatant was incubated with HisPur^TMNi-NTA resin (Thermo Scientific) pre-equilibrated with buffer G at 4 °C for 1 h. The resin was washed five times with buffer H (50 mM Tris pH 7.0, 150 mM NaCl) and subsequently ten times with buffer H containing 30 mM imidazole. The bound proteins were eluted with buffer H containing 100 mM imidazole once, then 300 mM imidazole for four times, and 500 mM imidazole once. […]
(§2) ITC experiments of hEPG5-LIR1 peptide titrating into His-LC3/GABARAP proteins were performed using ITC200 (GE Healthcare now Malvern Panalytical), while experiments of hEPG5-LIR2 peptide titrating into His-LC3/GABARAP proteins were performed using MicroCal PEAQ-ITC (Malvern Panalytical). […] The ITC data were analyzed with one-site binding model using Origin 7.0 (OriginLab). […]
(§3) All experiments were performed in triplicates. […] Intensity of His-FLAG-hEPG5, GST (control), and GST-LC3/GABARAP subfamily proteins in pull-down assays was quantified using Bio-Rad Image Lab Software v6.0. […]

[2] = biological target: T2, LC3C (Homo sapiens, UniProt Q9BXW4); test: ITC of hEPG5 LIR peptides titrated into His-LC3C; type: binding; conditions: 0.6 mM peptide into 0.06 mM His-LC3C, 20 steps, 25 °C, 50 mM Tris pH 7.0, 25 mM NaCl, one-site model, triplicates
T2 construct: made in house; host or cells: E. coli (T7 Express)
Experimental: as §1, §2, §3

[3] = biological target: T3, GABARAP (Homo sapiens, UniProt O95166); test: GST pull-down of hEPG5 (wild type and mutants) with GST-GABARAP bait; type: binding; conditions: anti-FLAG western blot, compared to wild-type hEPG5, triplicates
T3 construct: made in house; host or cells: E. coli (T7 Express)
Experimental: (§4) For GST pull-down analysis, N-terminally GST-tagged LC3 and GABARAP proteins were expressed in Escherichia coli (T7 Express) cells. The cells were induced with 1 mM isopropyl β-d-1-thiogalacpyranoside [IPTG] for 4 h at 25 °C. The cell pellets were resuspended in 25 mL buffer E (50 mM Tris pH 8.0, 150 mM NaCl, and 1 mM PMSF). Cells were then sonicated for four cycles consisting of 1 min sonication followed by 2 min cooling on ice, with duty cycle set to 50% and output control at 5. Cell lysate was then centrifuged at 20,950 × g for 40 min at 4 °C. Supernatant was incubated for 1 h at 4 °C with glutathione resin (50% slurry, GenScript) pre-equilibrated with buffer E, while gently inverting. Resin was returned to the column and washed with buffer E. Proteins were eluted with 10 mM reduced glutathione (GoldBio) in buffer F (50 mM Tris pH 8.0, 150 mM NaCl). Free glutathione was removed by dialysis in buffer F and protein concentration was measured by spectrophotometry (NanoDrop, Thermo Scientific). Glycerol was added to a final concentration of 5%, then solutions were aliquoted and stored at −70 °C.
Pulldowns were performed with a 50 µL slurry of glutathione resin (50% slurry, GenScript). The resin was equilibrated with buffer N (50 mM Tris pH 8.0, 150 mM NaCl, 5% glycerol, 0.01% Tween20, and 0.5 mM DTT) and the beads were incubated with equal amounts (200–240 µg) of purified GST, GST-LC3A/B/C, and GST-GABARAP/L1/L2 bait for 10 min at 4 °C with gentle inversion. The tubes were centrifuged at 500 × g for 2 min, followed by removal of excess bait protein in the supernatant. The resin was then incubated with equal amounts (25–30 µg) of purified His-FLAG-hEPG5, truncated hEPG5 or its corresponding mutants (W550A, W567A, W550A/W567A, F794A, or Q336R). The tubes were once again centrifuged at 500 × g for 2 min, followed by removal of the supernatant. The resin was washed with 1 mL buffer N, centrifuged at 500 × g for 2 min, followed by removal of the excess buffer with five washes. After the final wash and removal of the supernatant, 50 µL 2× SDS loading dye was added to each tube. The tubes were then heated at 65 °C for 10 min, loaded onto two 6–15% gradient SDS–PAGE gels, and stained with Coomassie Blue. For western blots, samples were transferred from a 6–15% gradient SDS–PAGE gel to a nitrocellulose membrane and blocked with Odyssey Blocking Buffer (LI-COR). Mouse anti-FLAG was used as the primary antibody (1:2000; Sigma-Aldrich) and donkey anti-mouse IRDye 680LT as the secondary antibody (1:7500; LI-COR) for visualization on a ChemiDoc Imager (Bio-Rad). Experiments were performed in triplicates.
All experiments were performed in triplicates. ITC data represents means or means ± SEM. Intensity of His-FLAG-hEPG5, GST (control), and GST-LC3/GABARAP subfamily proteins in pull-down assays was quantified using Bio-Rad Image Lab Software v6.0. Statistics were performed using Prism 7 (GraphPad).

[4] = tested on: GABARAP subfamily (GABARAP, GABARAPL1, and GABARAPL2); test: GST pull-down of hEPG5, average over GABARAP subfamily baits; type: binding, human
Experimental: as §4
Pulldowns were performed with a 50 µL slurry of glutathione resin (50% slurry, GenScript). […]
as §3

[5] = Differential scanning fluorimetry (thermal shift assay) of hEPG5; type: physicochemical; conditions: 0.4 mg/mL protein, 10× Sypro Orange, 50 mM Tris pH 8.0, 150 mM NaCl, maximum of first derivative, triplicates
Experimental: Purified wild type His-FLAG-hEPG5 and His-FLAG-hEPG5^Q336R at 0.4 mg/mL were mixed with 10× Sypro Orange dye in buffer F in a final volume of 25 µL. The fluorescence was measured using the MiniOpticon Real-Time PCR system in triplicates. Melting temperature was calculated using the maximum of the first derivative with Prism 7 (GraphPad).

T3 sequence (O95166 whole entry): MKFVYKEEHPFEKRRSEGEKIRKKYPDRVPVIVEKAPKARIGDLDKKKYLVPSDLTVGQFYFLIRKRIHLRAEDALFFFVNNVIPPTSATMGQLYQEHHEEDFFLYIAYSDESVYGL
T2 sequence (Q9BXW4 whole entry): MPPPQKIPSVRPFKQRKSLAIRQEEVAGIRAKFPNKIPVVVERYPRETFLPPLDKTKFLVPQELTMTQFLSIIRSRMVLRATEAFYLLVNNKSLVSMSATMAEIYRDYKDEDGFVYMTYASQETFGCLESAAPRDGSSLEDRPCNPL

Substance	binding to GABARAP in GST pull-down, in words [3]	also measured
GSGTWTLVDEG [LIR1]	–	Kd with LC3B [1]: bind weakly; Kd with LC3C [2]: bind weakly
W550A/W567A: hEPG5 double mutant of both tandem LIR motifs	completely abolished GABARAP binding	–
W550A: hEPG5 mutant, first aromatic residue of LIR1 replaced by alanine	severely	–
W567A: hEPG5 mutant, first aromatic residue of LIR2 replaced by alanine	mildly	–
hEPG5: recombinant full-length human EPG5, His-FLAG tagged, expressed in a baculovirus-insect cell system	–	hEPG5 precipitated by GABARAP subfamily compared to LC3 subfamily ([4]; fluorescence-based western blotting, triplicates): 2.5 times; Average Ratio of GABARAP Family: LC3 Family ([4]; hEPG5 binding ratio, average of 3 runs): 2.51
hEPG5^F794A: hEPG5 mutant with mutation to the third putative LIR motif	binds GABARAP as strongly as wild-type hEPG5	–
hEPG5^Q336R: hEPG5 carrying the Vici syndrome mutation Gln336Arg	did not affect hEPG5’s ability to bind to GABARAP and other human ATG8 proteins	melting temperature higher than wild-type hEPG5 [5]: ~1.5 °C
hEPG5^Δ1–548: hEPG5 truncation devoid of the region between the N-terminus and the two LIR motifs	precipitated by GABARAP at a higher level compared to wild-type hEPG5	–
hEPG5^Δ1770–2579: hEPG5 truncation mutant which excludes the entire C-terminal region	binds GABARAP equally well compared to wild-type hEPG5	–
